Test results: the supplement of paper PMC10567573

B1: PI4K2A (parent)
chain: FVKDPQGRIIAVFKPKNEEPYGHL
B2: ATL3 (parent)
chain: EKALASILLQDHIRDLDVVVVSVA

Variants of: B1
Assay: protein stability index of a GFP-peptide fusion (GPS, HEK-293T) (PSI 1-6); higher = more stable
Settings: c terminus: a fixed tail appended
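Further: lentivirally expressed fusions sorted by FACS into six bins by GFP to DsRed ratio, PSI derived from sequencing read proportions per bin multiplied by bin number.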

Protein stability index of substitutions, site by site:
H23: Y 1.78 | V 2.28 | N 1.99 | R 1.79 | P 2.47 | L 2.41 | W 1.83 | Q 1.56 | T 1.81 | I 2.38 | K 1.61 | S 1.36 | M 1.87
L24: A 2.27 | F 1.53 | V 2.19 | W 1.74 | K 2.04 | P 2.33 | C 2.24 | R 1.42 | M 1.92 | E 1.04 | I 1.92 | S 2.1 | D 2.03 | Q 2.03 | G 1.48 | T 2.22 | Y 1.41 | H 1.76 | N 1.63

Variants of: B2
Assay: as above
Settings: c terminus: a fixed tail appended

Protein stability index, by site and new letter:
I13: Y 3.9 | D 3.12 | S 1.26
V18: Q 1.59 | H 1.06 | T 3.46 | P 2.34 | Y 3.61 | N 2 | E 2.48 | C 1.66
V23: L 2.76 | F 3.83 | D 3.01 | N 2.32 | P 2.45 | S 3.22 | K 2.38 | A 2.21 | R 1.41 | G 3.31 | Q 1.96
A24: M 1.8 | N 2.01 | C 4.82 | P 2.53 | G 2.39
L16: K 1.23 | R 1.03 | P 1.57 | N 1.46 | S 2.37 | A 1.31
D17: A 3.11 | I 1.36 | P 2.93 | Y 3.45
Q10: N 2.98 | S 2.87 | Y 3.47
V19: R 2.19 | P 2.52 | C 4.35 | S 2.01 | D 3.81 | Q 1.42 | H 2.29 | G 2.25 | N 1.72 | K 1.96
V20: D 2.79 | H 2.18 | L 3.35 | M 1.82 | W 3.67 | P 3.2 | K 2.79 | T 1.89 | Y 2.34
R14: N 3.67 | W 3.58 | T 1.49 | L 3.36 | P 1.55 | D 2.15 | F 3.13
H12: T 2.26 | L 2.48 | G 4.08 | I 3.19 | E 2.17
S22: H 1.84 | E 2.86 | G 1.07 | D 2.35 | R 2.97
L8: N 1.04 | T 1.55 | K 1.14 | Q 2.63 | P 2.34
E1: G 3.59 | R 2.24 | C 3.34 | I 2.5
S6: L 3.06 | P 1.93
A5: H 1.35 | E 2.29 | K 1.74 | W 2.08 | T 2.26 | V 2.9 | Q 3.29
I7: L 1.97 | Y 2.15 | P 3.2 | R 2.08 | N 1.31 | S 2.85 | T 2.13
K2: D 2.78 | Y 2.98 | R 1.3
D15: I 2.33 | W 2.5
D11: K 3.25 | E 3.13 | G 3.66 | P 3.03
L9: P 1.61 | M 2.46 | E 3.11 | K 3.25 | H 2.71
L4: Y 1.83 | A 1.45 | P 1.25 | T 1.37 | V 3.38 | H 1.05 | E 1.39 | C 1.47
A3: Y 1.09 | E 1.51
V21: T 1.62 | C 2.07 | N 2.16 | A 1.16 | S 1.81 | R 3.63 | H 1.51 | I 2.63 | P 2.56 | Y 1.75
